Data on one molecule can be found in publication PMC5993538, “The plant-specific transcription factors CBP60g and SARD1 are targeted by a Verticillium secretory protein VdSCP41 to modulate immunity”.

This series concerns the target T1, GST-CBP60g (Arabidopsis thaliana, UniProt F4K2R6 1-563).
T1 sequence: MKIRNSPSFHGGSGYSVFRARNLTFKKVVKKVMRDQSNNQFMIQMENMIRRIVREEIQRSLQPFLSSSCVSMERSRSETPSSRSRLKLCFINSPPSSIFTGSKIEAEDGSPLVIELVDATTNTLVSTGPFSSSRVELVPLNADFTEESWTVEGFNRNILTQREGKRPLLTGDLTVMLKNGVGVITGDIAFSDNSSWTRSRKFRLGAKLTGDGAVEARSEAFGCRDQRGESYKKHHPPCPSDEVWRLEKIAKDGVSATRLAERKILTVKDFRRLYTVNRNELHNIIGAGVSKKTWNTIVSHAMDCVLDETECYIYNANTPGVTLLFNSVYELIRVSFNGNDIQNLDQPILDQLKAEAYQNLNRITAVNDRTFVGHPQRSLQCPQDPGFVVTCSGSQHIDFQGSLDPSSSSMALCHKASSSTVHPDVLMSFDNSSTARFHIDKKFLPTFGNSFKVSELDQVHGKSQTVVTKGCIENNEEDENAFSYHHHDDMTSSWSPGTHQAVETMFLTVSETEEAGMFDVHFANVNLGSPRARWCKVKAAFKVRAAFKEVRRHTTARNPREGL
The series is described as follows: EMSA; no effector; signal reduced by 150x unlabeled probe; 10 mM Tris-HCl pH 7.5, 50 mM KCl, 1 mM DTT, 50 ng poly[dI-dC], 20 ul, room temperature 30 min; 2 fmol probe, 4 ug GST-CBP60g; 5% native PAGE. Particulars: protein: recombinant; tags: N-terminal GST (pGEX-6p-1); label: 32P (5' end, T4 PNK); blunt.

B1: ICS1 promoter 60-bp probe (dsDNA)
DNA 1: TGTGTAATTTGGTGGTTATTTCATAGAAATTTTGGGGAAATTGTTGCACCTCTCCACTCT
DNA 2: AGAGTGGAGAGGTGCAACAATTTCCCCAAAATTTCTATGAAATAACCACCAAATTACACA
As for B1, the binding result is listed as “binds”.
